Reference: patent publication US20250340613A1 (JOINT STOCK COMPANY BIOCAD, published 2025)

T1: hIL4R-His, Interleukin-4 receptor subunit alpha (Homo sapiens) aa 27-227 (Homo sapiens, UniProt P24394 27-227)
T1 construct: range 27-227; not shown: His tag as the name implies
T1 sequence (looked up): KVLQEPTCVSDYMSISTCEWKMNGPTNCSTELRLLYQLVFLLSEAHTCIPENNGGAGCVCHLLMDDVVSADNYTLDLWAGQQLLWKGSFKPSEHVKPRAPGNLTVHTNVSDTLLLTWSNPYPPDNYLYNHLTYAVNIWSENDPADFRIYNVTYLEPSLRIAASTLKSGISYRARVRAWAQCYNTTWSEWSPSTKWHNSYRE

T2: hisOX40, Tumor necrosis factor receptor superfamily member 4 (Homo sapiens) aa 26-210 (Homo sapiens, UniProt P43489 26-210)
T2 construct: range 26-210; The tag is put first only because the name begins with His; not shown: His tag as the name implies
T2 sequence (looked up): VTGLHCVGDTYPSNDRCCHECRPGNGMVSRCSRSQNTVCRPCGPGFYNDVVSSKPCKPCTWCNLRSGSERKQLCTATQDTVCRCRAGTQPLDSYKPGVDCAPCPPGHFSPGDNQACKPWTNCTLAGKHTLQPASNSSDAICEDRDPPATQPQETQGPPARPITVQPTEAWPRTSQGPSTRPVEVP

T3: C-Avi-His-TEVs-HSA_hBCMA, Tumor necrosis factor receptor superfamily member 17 (Homo sapiens) aa 1-54 (Homo sapiens, UniProt Q02223 1-54)
T3 construct: range 1-54; not shown: Avi, His, TEV site and HSA parts as the name implies
T3 sequence (looked up): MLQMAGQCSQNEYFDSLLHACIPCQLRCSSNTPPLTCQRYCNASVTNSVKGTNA

T4: IL5R-His, Interleukin-5 receptor subunit alpha (Homo sapiens) aa 22-342 (Homo sapiens, UniProt Q01344 22-342)
T4 construct: not shown: His tag as the name implies
T4 sequence (looked up): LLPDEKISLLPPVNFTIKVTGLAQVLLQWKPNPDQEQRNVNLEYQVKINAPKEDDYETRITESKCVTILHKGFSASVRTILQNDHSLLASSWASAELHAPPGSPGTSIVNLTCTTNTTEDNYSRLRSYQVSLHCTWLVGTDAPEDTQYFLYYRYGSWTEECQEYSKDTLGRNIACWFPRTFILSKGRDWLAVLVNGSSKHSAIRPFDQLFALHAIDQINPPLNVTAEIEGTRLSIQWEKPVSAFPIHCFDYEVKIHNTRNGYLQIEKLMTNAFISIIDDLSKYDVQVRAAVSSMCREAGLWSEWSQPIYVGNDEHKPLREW

T5: hCD38-Avi, ADP-ribosyl cyclase/cyclic ADP-ribose hydrolase 1 (Homo sapiens) aa 43-300 (Homo sapiens, UniProt P28907 43-300)
T5 construct: range 43-300; not shown: Avi tag as the name implies
T5 sequence (looked up): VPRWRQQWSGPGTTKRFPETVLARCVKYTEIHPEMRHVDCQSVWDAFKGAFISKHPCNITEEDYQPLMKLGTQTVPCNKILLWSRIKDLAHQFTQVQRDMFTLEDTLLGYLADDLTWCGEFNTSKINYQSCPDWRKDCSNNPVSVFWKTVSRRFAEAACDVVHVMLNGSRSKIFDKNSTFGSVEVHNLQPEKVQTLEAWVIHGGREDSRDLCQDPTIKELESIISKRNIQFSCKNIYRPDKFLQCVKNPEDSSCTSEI

B1: 02-005, bivalent bispecific chimeric antibody that specifically binds to PD1 and CD20 (bispecific antibody, human IgG1, kappa, L234A L235A)
heavy 1: EVQLVESGGGLVQPGGSLRLSCAASGYTFTSYNMHWVRQAPGKGLEWVGAIYPGNGDTSYNQKFKGRFTISVDKSKNTLYLQMNSLRAEDTAVYYCARVVYYSNSYWYFDVWGQGTLVTVSSASTKGPSVFPLAPSSKSTSGGTAALGCLVKDYFPEPVTVSWNSGALTSGVHTFPAVLQSSGLYSLSSVVTVPSSSLGTQTYICNVNHKPSNTKVDKRVEPKSCDKTHTCPPCPAPEAAGGPSVFLFPPKPKDTLYITREPEVTCVVVDVSHEDPEVKFNWYVDGVEVHNAKTKPREEQYNSTYRVVSVLTVLHQDWLNGKEYKCKVSNKALPAPIEKTISKAKGQPREPQVCTLPPSRDELTKNQVSLSCAVKGFYPSDIAVEWESNGQPENNYKTTPPVLDSDGSFFLVSKLTVDKSRWQQGNVFSCSVMHEALHNHYTQKSLSLSPGK
light 1: DIQMTQSPSSLSASVGDRVTITCRASSSVSYMHWYQQKPGKAPKPLIYAPSNLASGVPSRFSGSGSGTDFTLTISSLQPEDFATYYCQQWSFNPPTFGQGTKVEIKRTVAAPSVFIFPPSDEQLKSGTASVVCLLNNFYPREAKVQWKVDNALQSGNSQESVTEQDSKDSTYSLSSTLTLSKADYEKHKVYACEVTHQGLSSPVTKSFNRGEC
heavy 2: not shown
light 2: QPVLTQPLSVSVALGQTARITCGGNNIGSKNVHWYQQKPGQAPVLVIYRDSNRPSGIPERFSGSNSGNTATLTISRAQAGDEADYYCQVWDSSTAVFGTGTKLTVLQQRQVKPEAWLSSGPSPGPGRLQLVCHVSGFYPKPVWVMWMRGEQEQQGTQLGDILPNANWTWYLRATLDVADGEAAGLSCRVKHSSLEGQDIILYWRGSC
notes: Produced in CHO cells
B2: 02-004, bivalent bispecific chimeric antibody that specifically binds to PD1 and CD20 (bispecific antibody, human IgG1, kappa, L234A L235A)
heavy 1: QVQLVQSGGGLVQPGGSLRLSCAASGFTFSSYWMYWVRQVPGKGLEWVSAIDTGGGRTYYADSVKGRFAISRVNAKNTMYLQMNSLRAEDTAVYYCARDEGGGTGWGVLKDWPYGLDAWGQGTLVTVSSASTKGPSVFPLAPSSKSTSGGTAALGCLVKDYFPEPVTVSWNSGALTSGVHTFPAVLQSSGLYSLSSVVTVPSSSLGTQTYICNVNHKPSNTKVDKRVEPKSCDKTHTCPPCPAPEAAGGPSVFLFPPKPKDTLYITREPEVTCVVVDVSHEDPEVKFNWYVDGVEVHNAKTKPREEQYNSTYRVVSVLTVLHQDWLNGKEYKCKVSNKALPAPIEKTISKAKGQPREPQVCTLPPSRDELTKNQVSLSCAVKGFYPSDIAVEWESNGQPENNYKTTPPVLDSDGSFFLVSKLTVDKSRWQQGNVFSCSVMHEALHNHYTQKSLSLSPGK
light 1: QPVLTQPLSVSVALGQTARITCGGNNIGSKNVHWYQQKPGQAPVLVIYRDSNRPSGIPERFSGSNSGNTATLTISRAQAGDEADYYCQVWDSSTAVFGTGTKLTVLQRTVAAPSVFIFPPSDEQLKSGTASVVCLLNNFYPREAKVQWKVDNALQSGNSQESVTEQDSKDSTYSLSSTLTLSKADYEKHKVYACEVTHQGLSSPVTKSFNRGEC
heavy 2: not shown
light 2: DIQMTQSPSSLSASVGDRVTITCRASSSVSYMHWYQQKPGKAPKPLIYAPSNLASGVPSRFSGSGSGTDFTLTISSLQPEDFATYYCQQWSFNPPTFGQGTKVEIKQRQVKPEAWLSSGPSPGPGRLQLVCHVSGFYPKPVWVMWMRGEQEQQGTQLGDILPNANWTWYLRATLDVADGEAAGLSCRVKHSSLEGQDIILYWRGSC
notes: Produced in CHO cells
B3: 02-009, bivalent bispecific chimeric antibody that specifically binds to CD20 and CSF1R (bispecific antibody, human IgG1, kappa, L234A L235A)
heavy 1: QVQLVESGGGLVRPGGSLRLSCAASEFTFDDYAMSWVRQAPGKGLEWVSAISWNGGSTNYADSVKGRFTISRDNAKNSLYLQMNSLRAEDTALYYCASTVEVAHRRLYKYLEVWGQGTLVTVSSASTKGPSVFPLAPSSKSTSGGTAALGCLVKDYFPEPVTVSWNSGALTSGVHTFPAVLQSSGLYSLSSVVTVPSSSLGTQTYICNVNHKPSNTKVDKRVEPKSCDKTHTCPPCPAPEAAGGPSVFLFPPKPKDTLYITREPEVTCVVVDVSHEDPEVKFNWYVDGVEVHNAKTKPREEQYNSTYRVVSVLTVLHQDWLNGKEYKCKVSNKALPAPIEKTISKAKGQPREPQVCTLPPSRDELTKNQVSLSCAVKGFYPSDIAVEWESNGQPENNYKTTPPVLDSDGSFFLVSKLTVDKSRWQQGNVFSCSVMHEALHNHYTQKSLSLSPGK
light 1: QAGLTQPPSVSVAPGQTARITCGGNNIGSKSVHWYQQKPGQAPVLVVYGDSDRPSGIPERFSGSNSGNTATLTISRVEAGDEADYYCQVWDISSDHVVFGGGTQLTVLRTVAAPSVFIFPPSDEQLKSGTASVVCLLNNFYPREAKVQWKVDNALQSGNSQESVTEQDSKDSTYSLSSTLTLSKADYEKHKVYACEVTHQGLSSPVTKSFNRGEC
heavy 2: not shown
light 2: B2 light 2
notes: Produced in CHO cells

What follows are binders tested against T1, hIL4R-His, Interleukin-4 receptor … (assay: BLI Octet RED 384; antibody on ProA sensor, antigen 30 ug/ml (1154 nM); response at end of association).
Protocol: (§1) Experimental study of nonspecific binding of bispecific chimeric antibodies to non-target antigens was performed on Forte Bio Octert RED 384. Protein A (ProA) biosensors (ForteBio) were immersed into a solution containing antibodies at a concentration of 10 μg/ml for 150 seconds to immobilize same. The baseline was recorded in a 1×KB solution for 30 seconds. The antibody-loaded sensors were then immersed into wells containing non-target antigens at a concentration of 30 μg/ml for 150 seconds. Complex dissociation was then recorded for 30 seconds.
(§2) The reference sensors went through all the steps as the sensors used to record analyte sensograms did, with the exception of the association step—at the association step, the sensors were immersed in a kinetic buffer solution without analyte (the reference sensor signals were measured in parallel with the recording of the main sensograms). The reference signal was subtracted from the signal received on sensors interacting with the analyte during the processing of sensograms.
(§3) Sensograms were processed using ForteBio Octet Data Analysisn 9.0 software. To report no non-specific interaction, the recorded signal level was checked at the end of the association step (the response parameter).

Row | Signal level (nm) | Binder
1 | -0.0057 | B1
2 | 0.0102 | B2
3 | -0.0036 | B3

Each binder was assayed against T2, hisOX40, Tumor necrosis factor receptor … (assay: BLI Octet RED 384; antibody on ProA sensor, antigen 30 ug/ml (1310 nM); response at end of association).
Protocol: as §1, §2, §3

Row | Binder | Signal level (nm)
4 | B1 | -0.0169
5 | B2 | 0.0103
6 | B3 | -0.0158

These binders were tested against T6, extracellular domain of the human PD-1 protein (hPD1ex-H6F) (Homo sapiens, UniProt Q15116 21-170) (assay: BLI Octet RED 384; antibody on ProA sensor, antigen 30 ug/ml (1456 nM); response at end of association).
T6 construct: Molecular weight 20.6 kDa; made in CHO cells; also called hPDlex-H6F; not shown: C-terminal His and FLAG tags
T6 sequence (Q15116 21-170 limits assumed, form in doubt): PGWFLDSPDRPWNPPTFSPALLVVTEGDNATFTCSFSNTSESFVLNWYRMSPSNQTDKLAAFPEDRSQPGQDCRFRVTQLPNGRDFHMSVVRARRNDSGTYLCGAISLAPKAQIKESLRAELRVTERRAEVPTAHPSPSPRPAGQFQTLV
Protocol: as §1, §2, §3

Row | Signal level (nm) | Binder
7 | 0.139 | B1
8 | 0.35 | B2
9 | -0.0059 | B3

Each binder was assayed against T3, C-Avi-His-TEVs-HSA_hBCMA, Tumor … (assay: BLI Octet RED 384; antibody on ProA sensor, antigen 30 ug/ml (391.2 nM); response at end of association).
Protocol: as §1, §2, §3

Row | Binder | Signal level (nm)
10 | B1 | 0.0021
11 | B2 | 0.0108
12 | B3 | -0.0154

The binders below were run against T7, Her3-H6F, Receptor tyrosine-protein kinase erbB-3 (Homo sapiens) aa 21-643 (Homo sapiens, UniProt P21860 21-643) (assay: BLI Octet RED 384; antibody on ProA sensor, antigen 30 ug/ml (420.8 nM); response at end of association).
T7 construct: not shown: His and FLAG tags implied by the name 'H6F'
T7 sequence (P21860 21-643 limits assumed): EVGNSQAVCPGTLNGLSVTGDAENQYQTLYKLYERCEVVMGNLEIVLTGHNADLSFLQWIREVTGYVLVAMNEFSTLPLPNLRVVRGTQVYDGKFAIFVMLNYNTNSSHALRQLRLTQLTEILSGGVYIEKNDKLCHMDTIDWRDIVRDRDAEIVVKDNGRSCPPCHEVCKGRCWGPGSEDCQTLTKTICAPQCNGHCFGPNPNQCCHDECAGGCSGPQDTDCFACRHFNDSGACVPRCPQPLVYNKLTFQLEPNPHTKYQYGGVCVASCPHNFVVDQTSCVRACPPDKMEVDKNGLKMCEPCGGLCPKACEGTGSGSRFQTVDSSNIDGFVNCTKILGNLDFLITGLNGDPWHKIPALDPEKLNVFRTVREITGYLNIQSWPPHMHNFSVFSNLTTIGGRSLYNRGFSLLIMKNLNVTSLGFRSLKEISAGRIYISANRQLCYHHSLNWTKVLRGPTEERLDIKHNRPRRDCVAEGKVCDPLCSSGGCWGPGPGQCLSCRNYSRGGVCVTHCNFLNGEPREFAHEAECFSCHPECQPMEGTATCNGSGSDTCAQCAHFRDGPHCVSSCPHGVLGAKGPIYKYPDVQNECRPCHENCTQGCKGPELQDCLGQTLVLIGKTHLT
Protocol: as §1, §2, §3

Row | Signal level (nm) | Binder
13 | -0.0128 | B1
14 | 0.0217 | B2
15 | -0.0161 | B3

These binders were tested against T8, extracellular domain of the human CSF1R protein (hCSF1R_His) (Homo sapiens, UniProt P07333 20-512) (assay: BLI Octet RED 384; antibody on ProA sensor, antigen 30 ug/ml (522.5 nM); response at end of association).
T8 construct: range 20-512; Molecular weight 57.4 kDa; made in CHO cells; also called hCSF1_His; not shown: C-terminal His and FLAG tags
T8 sequence (P07333 20-512 limits assumed): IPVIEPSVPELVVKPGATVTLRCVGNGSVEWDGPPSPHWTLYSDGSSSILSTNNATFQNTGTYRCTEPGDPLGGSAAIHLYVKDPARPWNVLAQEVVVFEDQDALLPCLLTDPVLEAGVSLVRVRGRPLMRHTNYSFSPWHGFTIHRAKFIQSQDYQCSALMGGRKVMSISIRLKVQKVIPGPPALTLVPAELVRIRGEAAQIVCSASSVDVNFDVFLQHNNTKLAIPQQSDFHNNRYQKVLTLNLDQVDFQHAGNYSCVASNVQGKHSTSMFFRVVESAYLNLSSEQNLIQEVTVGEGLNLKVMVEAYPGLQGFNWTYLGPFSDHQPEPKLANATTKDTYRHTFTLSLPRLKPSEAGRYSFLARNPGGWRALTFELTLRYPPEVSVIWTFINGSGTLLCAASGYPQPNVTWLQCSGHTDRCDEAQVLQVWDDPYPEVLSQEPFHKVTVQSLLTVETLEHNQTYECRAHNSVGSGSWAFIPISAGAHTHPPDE
Protocol: as §1, §2, §3

Row | Signal level (nm) | Binder
16 | 0.0034 | B1
17 | 0.0103 | B2
18 | 0.564 | B3

What follows are binders tested against T9, Macaca CSF1R_C-His, Macrophage colony-stimulating factor 1 receptor (Macaca mulatta) aa 20-513 (Macaca mulatta) (assay: BLI Octet RED 384; antibody on ProA sensor, antigen 30 ug/ml (534.8 nM); response at end of association).
T9 construct: range 20-513
Protocol: as §1, §2, §3

Row | Signal level (nm) | Binder
19 | -0.0084 | B1
20 | 0.0236 | B2
21 | 0.531 | B3

Each binder was assayed against T4, IL5R-His, Interleukin-5 receptor … (assay: BLI Octet RED 384; antibody on ProA sensor, antigen 30 ug/ml (757.6 nM); response at end of association).
Protocol: as §1, §2, §3

Row | Signal level (nm) | Binder
22 | 0.0225 | B1
23 | 0.0249 | B2
24 | -0.0064 | B3

The binders below were run against T5, hCD38-Avi, ADP-ribosyl cyclase/cyclic … (assay: BLI Octet RED 384; antibody on ProA sensor, antigen 30 ug/ml (854.7 nM); response at end of association).
Protocol: as §1, §2, §3

Row | Signal level (nm) | Binder
25 | 0.0072 | B1
26 | 0.004 | B2
27 | -0.0089 | B3
